Measured values taken from the nanobody polyreactivity screen of Harvey et al. (2022).

Experiment: yeast display, Sf9 membrane polyspecificity reagent, FACS + sequencing; frameworks hold sequencing errors
Summary of the method: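 Sorting gates, low and high (top ~1%), were placed on anti-HA fluorescence to track expression and on streptavidin fluorescence to track reagent binding. A clone's polyreactivity label is taken from the gate it came out of. The reagent was 10% biotinylated, detergent-solubilized Sf9 membrane, applied for 1 hour at 4 °C to galactose-induced yeast display cells.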

Sequence	polyreactivity (PSR sort gate)
QVQLVESGGGLVQAGGSLRLSCAASGRIFWYYAMGWYRQAPGKERELVASITRGNNTYYADSVKGRFTISRDNAKNPVYLQMNSLIPEDTAVYYCNAYRVRYTVDSVFYGYDYWGQGTHVTVSS	high polyreactivity
QVQLVESGGGLVQAGGSLRLSCAASGRIFWYYSMGRYRQAPATEREVVATITTRSGSTYYADSVKGRFTISRDNAKNTVYLQMNSMKPEDTAGYYCAADWPLLYTGSHSQTKYGYWGQGTQVTVSS	high polyreactivity
QVQLVESGGGLVQAGGSLRLSCAASGRIFWYYVMGWSRQAPGKEREFVASISSGGSTYYADSVKGRFTISRDNAKNTVYLQMNSLKPEDTAVYYCNAYVYGQRVWYDYWGQGTQVTVSS	high polyreactivity
QVQLVESGGGLVQAGGSLRLSCAASGRIFYANAMGWYRQAPGKERELVAAISSGGSTYYADSVKGRFTISRDNAKNTVYLKMYSLKPEDTAVYYCAASTVGQTFSYYVDTYDYWGQGTQVTVSS	low polyreactivity
QVQLVESGGGLVQAGGSLRLSCAASGRIFYANAMGWYRQAPGKERELVAGISSGGITNYADSVKGRFTISRDNAKITVYLQMNSLKPEDTAVYYCAVESWNRWRNRNDYWGQGTQVTVSS	low polyreactivity
QVQLVESGGGLVQAGGSLRLSCAASGRIFYAYAMGWYRQAPGKERELVAGISRGSSTNYADSVKGRFTISRDNAKNTVYLQMNSLKPEDTAVYYSAADVHRRGRYHSTYDYWGQGTQVTVSS	low polyreactivity
QVQLVESGGGLVQAGGSLRLSCAASGRIFYAYVMGWYRQAPGKERELVAAITSSGGSTYYADSVKGRFTISRDNAKNTVYLQMNSLKPEDTAVYYCNARSYPRWLRYDYWGQGTQVTVSS	low polyreactivity
QVQLVESGGGLVQAGGSLRLSCAASGRIFYAYVMGWYRQAPGKERELVADITSSGSTNYADSVKGRFTISRDNAKNTVYLQMNSLKPEDTAVYYCAKVPYAYQVRRKFGYWGQGTQVTVSS	low polyreactivity
QVQLVESGGGLVQAGGSLRLSCAASGRIFYDNTMGWYRQAPGKERELVAAISVSGGRTYYADSVKGRFTISRDNAKNTVYLQLNSLKPEDTAVYYCAADRGGEYWGQGTQVTVSS	high polyreactivity
QVQLVESGGGLVQAGGSLRLSCAASGRIFYEYAMGWYRQAPGKERELVAAITRGDSTYYADSVKGRFTISRDNAKNTVYLQMNSLKPEDTAVYFCNAGVFDYSGDSNYWGQGTQVTVSS	low polyreactivity
QVQLVESGGGLVQAGGSLRLSCAASGRIFYFNGMGWYRQAPGKERELVASISASGDRTYYADSVKGRFTISRDNAKNTVYLQMNSLKPEDTAVYYCATDANTYTKYDYWGQGTQVTVSS	low polyreactivity
QVQLVESGGGLVQAGGSLRLSCAASGRIFYFYAIGWYRQAPGKERELVASITSAGSTYYADSVKGRFTISRDNAKNTVYLQMNSLKPADTAVYYCARVRWGSRGGYIAYYGGGYWGQGTQVTVSS	high polyreactivity
QVQLVESGGGLVQAGGSLRLSCAASGRIFYFYAMGWYRQAPGKERELVAAISTSGGSTYYADSVKGRFTISRDNAKNTVYLQMNRLKPEDTAVYYCASRFRYYGSEYDYWGQGTQVTVSS	low polyreactivity
QVQLVESGGGLVQAGGSLRLSCAASGRIFYGNAMGWYRQAPGKERELVATISSSGGRTTYADSVKGRFTISRDNAKNTVYLQMNSLKPEDTAVYYCNARYRTRSLKYYYWGQGTQVTVSS	high polyreactivity
QVQLVESGGGLVQAGGSLRLSCAASGRIFYGNVIGWYRQAPGKERELVADIYYDGGSTYYADSVKGRFTISRDNAKNTVYLQMNSLKPEDTAVYYCNKREVFIYGTTYDYWGQGTQVTVSS	low polyreactivity
QVQLVESGGGLVQAGGSLRLSCAASGRIFYGNVMGWYRQAPGKERELVAVITSGGNTNYADSVKGRFTISRDNAKNTVYLQMNSLKPEDTAVYYCATAVVAGVWGYDYWGQGTQVSVSS	low polyreactivity
QVQLVESGGGLVQAGGSLRLSCAASGRIFYGYAMGWYRQAPGKERELVAAISSSGGSTYYADSVKGRFTISRDNAKNTVYLQMNSLKPEDTAVYYCNAQRYRPGYWYDYWGQGTQVTVSS	high polyreactivity
QVQLVESGGGLVQAGGSLRLSCAASGRIFYGYAMGWYRQAPGKERELVAAITWSGGRTYYADSVKGRFTISRDNAKNTVYLQMNSLKPEDTAVYYCNRPRRTSPSTYYHWGQGTQVTVSS	low polyreactivity
QVQLVESGGGLVQAGGSLRLSCAASGRIFYGYAMGWYRQAPGKERELVASISRRGSSTYYADSVKGRFTISRDNAMNTVYLQMNSLKPEDTAVYYCAAGYYPFNYWGQGTQVTVSS	high polyreactivity
QVQLVESGGGLVQAGGSLRLSCAASGRIFYHNAMGWYRQAPGKEREFVAAINWRGGNTYYADSVKGRFTISRDNAKITVYLQMNSLKPEDTAVYYCNALYKRYTDYDYWGQGTQVTVSS	high polyreactivity
QVQLVESGGGLVQAGGSLRLSCAASGRIFYHNAMGWYRQAPGKERELVAAISWSGGNTYYADSVKGRFTISRDNAKNTVYLQMNSLKPEDTAVYYCNRYWYRDRLWLYDYWGQGTQVTVSS	high polyreactivity
QVQLVESGGGLVQAGGSLRLSCAASGRIFYHNARGWYRQAPGKERELVAAIYSTGGSTYYADSVKGRFTISRDNAKNTVYLQMNSLKPEDTAVYYCATQYFRKYGYDYWGKGTQVTVSS	low polyreactivity

Sequence	polyreactivity (PSR sort gate)
QVQLVESGGGLVQAGGSLRLSCAASGRIFYHYAMGWYRQAPGKERELVATISASGSRTSYADSVKGRFTISRDNAKNTVYLQMNSLKPEDTGVYYCAADAPFWYGLDYWGQGTQVTVSS	high polyreactivity
QVQLVESGGGLVQAGGSLRLSCAASGRIFYIHAMGWYRQAPGKERELVAAITSNGGSTYYADSVKGRFTISRDNAKNTVYLQMNCLKPEDTAVYYCAARRYKVSRTSYGYGYWGQGTQVTVSS	high polyreactivity
QVQLVESGGGLVQAGGSLRLSCAASGRIFYINAMGWYRQAPGKERELVAAISGSGGDTYYADSVKGRFTISRDNAKNTVYLQMNSMKPEDTAVYYCGAEVYTWGQGTQVTVSS	low polyreactivity
QVQLVESGGGLVQAGGSLRLSCAASGRIFYINAMGWYRQAPGKERELVAAITSNGGSTYYADSVKGRFTISRDNAKNTVYLQMNSLKPEDTSVYYCAVSPRVPFRKPVFTPYNMYYWGQGTQVTVSS	high polyreactivity
QVQLVESGGGLVQAGGSLRLSCAASGRIFYIYAMGWYRQAPGKERELVATITGSGGGTYYADSVKGRFTISRDNAKNTVYLQMNSLKPEDTAVYYCAAQVLTDPDNYWGQGTQVTVSS	low polyreactivity
QVQLVESGGGLVQAGGSLRLSCAASGRIFYKYAMGWYRQAPGKERELVAAISSGGNTNYADSVKGRFTISRDNAKNTVYLQMNSLKPEDTAVYYCNAKRAYYRGYYPDNYWGQGTQVTVSS	high polyreactivity
QVQLVESGGGLVQAGGSLRLSCAASGRIFYKYAMGWYRQAPGKERELVAVINRGGTTYYADSVKGRFTISRDNGKNTVYLQMNSLKPDDTAVYYCNTVADYRRFGYWGQGTQVTVSS	high polyreactivity
QVQLVESGGGLVQAGGSLRLSCAASGRIFYKYVMGWYRQAPGKERELVAAINRSGGTTYYADSVKGRFTISRDNAKNTVYLQMNSLKPEDTAVYYCNATLPDYWPYYYYQGGDDYWGQGTQVTVSS	low polyreactivity
QVQLVESGGGLVQAGGSLRLSCAASGRIFYLNVMGWYRQAPGKERELVAAITRRDVTTYADSVKGRFTISRDNAKNTVYLQMNSLKPEDTAVYYCNAEYVPYYEYESWGQGTQVTVSS	low polyreactivity
QVQLVESGGGLVQAGGSLRLSCAASGRIFYLYAMGWYRQAPGKERELVAGITSGGRTNYADSVKGRFTISRDNAKNTVYLQMNSLKPEDTAVYYCAAFYWGRYTGYYWGQGTQVTVSS	high polyreactivity
QVQLVESGGGLVQAGGSLRLSCAASGRIFYLYAMGWYRQAPGKERELVAGITSGGRTNYADSVKGRFTISRDNAKNTVYLQMNSLKPEDTAVYYCAAYYWGRYTGYYWGQGTQVTVSS	high polyreactivity
QVQLVESGGGLVQAGGSLRLSCAASGRIFYLYAMGWYRQAPGKERELVATINTSGGITYYADSVKGRFTISRDNAKNTVYLQMNSLKPEDTAVYYCNADWEWQYFYFRPGGYWGQGTQVTVSS	low polyreactivity
QVQLVESGGGLVQAGGSLRLSCAASGRIFYLYAMGWYRQATGKERELVAAITWSGGSTTYADSVKGRFTISRDTAKNTVYLQMNSLNPEDTAVYYCNADGWIFPSFSPMDYWGQGTQVTVSS	low polyreactivity
QVQLVESGGGLVQAGGSLRLSCAASGRIFYNNAMGWYRQAPGKERELVAGISRSSGRTYYADSVKGRFTISRDIAKNTVYLQMNSLKPEDTAVYYCNTVSWPLSSKYYYWGQGTQVTVSS	high polyreactivity
QVQLVESGGGLVQAGGSLRLSCAASGRIFYNYAMGWSRQAPGKERELVAANSGSGGSTYYADSVKGRFTISRDSAMNTVYFQMNSLKPEDTAVYYCSTSGPQYYSRNFDYWGQGTQVTVSS	low polyreactivity
QVQLVESGGGLVQAGGSLRLSCAASGRIFYNYAMGWYRPAPGKDRVLVAAISVSGGSTYYADSEKGRFTISRDNAKNTVYLQMNSLKPEDTAVYYCAARRDRGYTREYWGQGTQVTVST	high polyreactivity
QVQLVESGGGLVQAGGSLRLSCAASGRIFYNYAMGWYRQAPGKERELVAAISGSGGSTYYADSVKGRFTISRDNAKNTVYLQMNSLTPEDTAVYYCSTSGPQYYSRNFDYWGQGTQVTVSS	low polyreactivity
QVQLVESGGGLVQAGGSLRLSCAASGRIFYNYAMGWYRQAPGKERELVAAISGSGGSTYYADSVKGRFTISRDNAMNTVYLQMNSLKPEDTAVYYCSTSGPQYYSRNFDYWGQGTQVTVSS	low polyreactivity
QVQLVESGGGLVQAGGSLRLSCAASGRIFYPNVMGWYRQAPGKERELVAAISASGGRTYYADSVKGRFTISRDNAKNTVYLQMNSLKPEDTAVYYCAADTVPSTRSWDTRYWEYEYWGQGTQVTVSS	low polyreactivity
QVQLVESGGGLVQAGGSLRLSCAASGRIFYPYAMGWYRQAPGKERELVAAISWSTGNTYYADSVKGRFTISRDNAKNTVYLQMNSLKPEDTAVYYCNARLAPVRRYWYSGYDYWGQGTQVTVSS	high polyreactivity
QVQLVESGGGLVQAGGSLRLSCAASGRIFYPYAMGWYRQAPGKEWELVAAINRSAGSTSYADSVKGRFTISRDNAKNTVYLQMKSLKPEDTAVYYCAAQGRWHRHFDYWGQGTQVNVSS	high polyreactivity
